Experimental data as given in US20090018029A1.

How the values were obtained:
hIFN receptor = experiment: BIAcore biosensor; orientation not stated
[1] = target: human growth hormone receptor on IM-9 cells (human) (UniProt P10912); experiment: cell-based or functional assay
Chain of UniProt P10912 (P10912 19-638): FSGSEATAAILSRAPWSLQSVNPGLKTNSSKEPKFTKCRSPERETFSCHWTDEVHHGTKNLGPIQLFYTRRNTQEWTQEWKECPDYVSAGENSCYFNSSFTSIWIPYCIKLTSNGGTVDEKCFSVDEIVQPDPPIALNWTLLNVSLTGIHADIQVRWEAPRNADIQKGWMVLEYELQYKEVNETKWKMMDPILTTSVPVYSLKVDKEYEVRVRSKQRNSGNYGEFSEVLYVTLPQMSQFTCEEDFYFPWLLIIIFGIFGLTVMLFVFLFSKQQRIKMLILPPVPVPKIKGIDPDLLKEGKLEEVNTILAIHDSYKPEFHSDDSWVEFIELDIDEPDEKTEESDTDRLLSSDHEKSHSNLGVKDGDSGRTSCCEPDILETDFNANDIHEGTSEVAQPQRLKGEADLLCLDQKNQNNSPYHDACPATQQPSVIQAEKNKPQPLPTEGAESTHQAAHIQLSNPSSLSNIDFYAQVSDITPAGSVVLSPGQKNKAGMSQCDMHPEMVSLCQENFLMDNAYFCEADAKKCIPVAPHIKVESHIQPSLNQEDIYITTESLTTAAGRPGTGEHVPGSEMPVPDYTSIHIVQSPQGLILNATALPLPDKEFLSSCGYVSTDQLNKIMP

Kd (hIFN receptor) [µM] | EC50 of STAT5 phosphorylation in IM-9 cells (phospho-STAT5 MFI, flow cytometry) [1] [µM] | Substance
0.005 |  | 6His-E107pAF IFNα2A (from UniProt P01563 24-188) (ligand)
0.008 |  | 6His-L117pAF IFNα2A (from UniProt P01563 24-188) (ligand)
0.012 |  | 6His-G37pAF IFNα2A (from UniProt P01563 24-188) (ligand)
0.017 |  | 6His-P109pAF IFNα2A (from UniProt P01563 24-188) (ligand)
0.008 |  | 6His-F27pAF IFNα2A (from UniProt P01563 24-188) (ligand)
0.052 |  | 6His-K31pAF IFNα2A (from UniProt P01563 24-188) (ligand)
0.009 |  | 6His-Y89pAF IFNα2A (from UniProt P01563 24-188) (ligand)
0.006 |  | 6His-IFNα2A (from UniProt P01563 24-188) (ligand)
0.011 |  | C1S IFNa2A (from UniProt P01563 24-188) (ligand)
0.01 |  | 6His-K49pAF IFNα2A (from UniProt P01563 24-188) (ligand)
0.008 |  | 6His-T106pAF IFNα2A (from UniProt P01563 24-188) (ligand)
0.004 |  | 6His-R120pAF IFNα2A (from UniProt P01563 24-188) (ligand)
0.075 |  | 6His-R149pAF IFNα2A (from UniProt P01563 24-188) (ligand)
0.012 |  | 6His-E96pAF IFNα2A (from UniProt P01563 24-188) (ligand)
0.019 |  | 6His-E113pAF IFNα2A (from UniProt P01563 24-188) (ligand)
0.011 |  | Sigma IFNαA (from UniProt P01563 24-188) (ligand)
0.004 |  | 6His-H34pAF IFNα2A (from UniProt P01563 24-188) (ligand)
0.005 |  | 6His-I24pAF IFNα2A (from UniProt P01563 24-188) (ligand)
0.013 |  | 6His-L110pAF IFNα2A (from UniProt P01563 24-188) (ligand)
0.01 |  | 6His-K134pAF IFNα2A (from UniProt P01563 24-188) (ligand)
0.009 |  | C1S E107pAF IFNα2A (from UniProt P01563 24-188) (ligand)
0.3 |  | 6His-Y122S IFNα2A (from UniProt P01563 24-188) (ligand)
0.042 |  | 6His-F38S IFNα2A (from UniProt P01563 24-188) (ligand)
0.01 |  | 6His-I100pAF IFNα2A (from UniProt P01563 24-188) (ligand)
0.019 |  | 6His-R125pAF IFNα2A (from UniProt P01563 24-188) (ligand)
0.008 |  | 6His-R12pAF IFNα2A (from UniProt P01563 24-188) (ligand)
0.0035 |  | 6His-E159pAF IFNα2A (from UniProt P01563 24-188) (ligand)
0.017 |  | 6His-P39pAF IFNα2A (from UniProt P01563 24-188) (ligand)
0.017 |  | 6His-Q48pAF IFNα2A (from UniProt P01563 24-188) (ligand)
 | > 200 | rat growth hormone, wild type (from UniProt P01244 27-216) (ligand)
